Laboratory results taken from the DeepSol protein solubility set.

Experiment: soluble on expression in E. coli; label from the status in PepcDB or PDB records

Row | Sequence | soluble on expression in E. coli
1 | AHHHHHHGSYEVTKFGGEGKRLEDYREIIGDEALEAIKAKAENLKDKSFVHVNSTSFGGGVAEILHNLVPLMRDVGIDARWFVIEGTNEFFNVTKSFHNALQGNKELRLTEEMKKLYLEINKKNAEDIDLTQFDYVLIHDPQPAPLIEFYEKRQPWIWRCHIDLSDPNLEFWKFLRQFVEKYDRYIFHMEEYVQEDLNQEKVVIMPPSIDPLSEKNMELSESEILKTLERFDVDPERPIITQVARFDPWKGVFDVIDVYRKVKEKIPEVQLLLVGVMAHDDPEGWIYFEKTLRKIGEDYDIKVLTNLTGVHAREVNAFQRASDVILQMSIREGFGLTVTEAMWKEKPVVGRAVGGIKLQIVDGKTGFLVKDVNDAIEKTLYLLEHKDVAQEMGKNAKERIKENFIITKHLERYLDLLNSF | soluble
2 | AHKLFIGGLPNYLNDDQVKELLTSFGPLKAFNLVKDSATGLSKGYAFCEYVDINVTDQAIAGLNGMQLGDKKLLVQRASVGAKNA | soluble
3 | AIAAHVRTYNPRVRVGNWKEDVTLEEETSKEFILQKDRGELTVQKEGALKQSILKPVSLSVSQDGFLHFGDTVMLVNCGDGGHMQRSPCVLSIIADSSNVTSHSQTNTGPHLLGPLQVGGAHSMDPCVRNTFIIISVDGSSDGEVVRYDQSFALKTTGGFAGELFLASDHKSFQKCAKKSRLQELSLVEEFDFLCWWKVLYFDPQDRLENEGYPVQVNNKVLISHCKTNQCLAALSNHILWSQFGKEYELTAHTFLDSHKAEQDNNHWLFSTAHPANQSQSLLQLQQEEHKENQEDTQVKDCS | soluble
4 | AIAAHVSSETQDVSPKDELTASEASTRSPLCEHTFPGDSDLRSMIEEHAFQVLSQGSLLESPSYTVCVSEPDKDDDFLSLNFPRKLWKIVESDQFKSISWDENGTCIVINEELFKKEILETKAPYRIFQTDAIKSFVRQLNLYGFSKIQQNFQRSAFLATFLSEEKESSVLSKLHVFVFHHSLFGATFGEHHFQPCPLPSGNKAPISTWSGDSWLL | soluble
5 | AIAARRNYQVERNKLEEKDPTWLMQKGQIQPLVSSLVVLNVEGERILARYTAKELFPTFDVEKKFEADLLKKSQTIPDLEERVFEHGQHIVVCRASEDLLFFVTSRIYENEVILSEVLTCWVDSLVKVLKNLPLNELNLLQHYEVLLLLVDELVDQEGVIMETDANELSSRTEFAMYSTDPRDLIPELTEQGFSHALQTAKQHLARTILK | soluble
6 | AIAFILSAQRLSGTQVFRRLAEGCTGYSVSSGCRQRRRCCPGAPQRPRRVRVNALQLQSGLADPLDPKSEAEVREHLRSNSPAERALGINYARYLDESTRYDILLEMMEDTDPQVRYAAVTQLATVGSHDRQRTLKAVRKILWNTEEDASVRAGALTCWAVSGSTRPSQTWKSSSTSRRTGWCGSASSLL | soluble
7 | AIALRADKPKCSIQNFFIPALGKDPNSRDNTTLNFMVRCDNPNKDKGIYYDDVHLNFSTINTTKINSSALVLVGNYTVPKFYQGHKKKAKKWGQVKPLNNQTVLRAVLPNGSAVFRLDLKTQVRFKIVFWKTKRYGVEVGADVEVNGDGVKAQKKGIKMKKS | soluble
8 | AIARNDLFNREKSRQLSLTPRTEKIEVKHVGKTDPGTVFVMNKNISTPYSCAMHLSEWYCSKSILALVDGQPWDMYKPLTKSCEIKFLTFKDPDPREVNKAYWRSCAMMLGCVIERAFKDDYVVSLLRAPEVPVIAGAFCYDVTLDKRLDEWMPTKENLRSFTKDAHALIYRDLPFETLDVDARVALEIFQHNKYKVDFIEEKASQNPERIVKLHRIGDFIDVSEGPLIPRTSVCFQYEVSAVHNLNPSQPNLIRRFQGLSLPTHLRAQFTIWDKLVGRSRKMVTEDEVRQTENTESTQ | not soluble
9 | AIASFITNPSIFSGLKLSNAQRKVKSDLECIRKSKLFQRKRIVPERRRLGLVACGTEEDRTHQRSQWGGEDSDYFGRDPRKETEFWMEHAKEVLESKEVADAVEAHKKSGSSNLTEEQKAWLEFARSITPKPEDEE | soluble
10 | AIASRAASLRAELTSLANAFEEERISSAERLDADLVRQAVEQAKPENLEQWKQVVHDATAKLQQFWEDSEQALIRETYALATSYLRESDDEVHRLQMTKKALEEQLETERRRSTRIEEQLAALQSRLLDSAAPAATTPADDARTQQEVLRSELQGFMQELVRNQRESLRVLQEELQRVREEASVREENLLRQIAHLKTELAVARTDNEVSSRQLRQLETSAGREEVQDELGPGTIWPPHLTPRRGHRRFQRHNRLEDAPAPPEF | soluble
11 | AIAVEVESDSVAERDRSSFLAGHDAIRLAKSCVDSPPERWYAALYQVYADLTKLRCWSNVEVVYSDSATFPTGLLGPLFEEDSMVQELHSAQCILGSERACFHVRCCIVGSPPSGRAINALSPQSETRTEERIITSRREPEVVIAVPMHAMLKLSNLDQALRMSSHIEGIVKNRHVADSSASTHSTDRQAGSRKSSVIFGFVDEDTTTAYYRIREGACESNDRREFSTDDIASCLAQERT | soluble
12 | AIETETLVVGAGPGGYVAAIRAAQLGQKVTIVEKGNLGGVCLNVGCIPSKALISASHRYEQAKHSEEMGIKAENVTIDFAKVQEWKASVVKKLTGGVEGLLKGNKVEIVKGEAYFVDANTVRVVNGDSAQTYTFKNAIIATGSRPIELPNFKFSNRILDSTGALNLGEVPKSLVVIGGGYIGIELGTAYANFGTKVTILEGAGEILSGFEKQMAAIIKKRLKKKGVEVVTNALAKGAEEREDGVTVTYEANGETKTIDADYVLVTVGRRPNTDELGLEQIGIKMTNRGLIEVDQQCRTSVPNIFAIGDIVPGPALAHKASYEGKVAAEAIAGHPSAVDYVAIPAVVFSDPECASVGYFEQQAKDEGIDVIAAKFPFAANGRALALNDTDGFLKLVVRKEDGVIIGAQIIGPNASDMIAELGLAIEAGMTAEDIALTIHAHPTLGEIAMEAAEVAL | soluble
13 | AIFGGDGFKDWIGEFSLFKELNEATEMFGKEDEEGTAATETEKADESTDGGMVKHDTNKAESLKKDKLSKEQREKLMEMEKKRREDMMKQVDELAEKLNEKISRYLIAVKSNNLEEFTRKLDQEIEDLKLESFGLELLYLLARVYKTKANNFIMSKKTYGISKIFTGTRDNARSVKSAYNLLSTGLEAQKAMEKMSEVNTDELDQYERAKFESTMAGKALGVMWAMSKFELERKLKDVCNKILNDKKVPSKERIAKAKAMLFIAHKFASARRSPEEAEEARVFEELILGEQEKEHKKHTVAR | not soluble
14 | AIPAPTDLKFTQVTPTSLSAQWTPPNVQLTGYRVRVTPKEKTGPMKEINLAPDSSSVVVSGLMVATKYEVSVYALKDTLTSRPAQGVVTTLENVSPPRRARVTDATETTITISWRTKTETITGFQVDAVPANGQTPIQRTIKPDVRSYTITGLQPGTDYKIYLYTLNDNARSSPVVIDASTAIDAPSNLRFLATTPNSLLVSWQPPRARITGYIIKYEKPGSPPREVVPRPRPGVTEATITGLEPGTEYTIYVIALKNNQKSEPLIGRKKT | soluble
15 | AKGDPHVLLTTSAGNIELELDKQKAPVSVQNFVDYVNSGFYNNTTFHRVIPGFMIQGGGFTEQMQQKKPNPPIKNEADNGLRNTRGTIAMARTADKDSATSQFFINVADNAFLDHGQRDFGYAVFGKVVKGMDVADKISQVPTHDVGPYQNVPSKPVVILSATVLP | soluble
16 | AKIGLFYGTQTGVTQTIAESIQQEFGGESIVDLNDIANADASDLNAYDYLIIGCPTWGVGELQSDWEGIYDDLDSVNFQGKKVAYFGAGDQVGYSDNFQDAMGILEEKISSLGSQTVGYWPIEGYDFNESKAVRNNQFVGLAIDEDNQPDLTKNRIKTWVSQLKSEFGL | soluble
17 | AKKIGIEQSLSDVEAALKEKGYDVVMMKSPADAQGCDCCVVTGLDNNVQGIADTVTQAPVITASGMTAEEICSEVESRIQ | not soluble
18 | ALCAICGDRATGKHYGASSCDGCKGFFRRSVRKNHMYSCRFSRQCVVDKDKRNQCRYCRLKKCFRAGMKKEAVQNERD | soluble
19 | AMADTIVAVELDSYPNTDIGDPNYPHIGIDIKSIRSKSTARWNMQTGKVGTVHISYNSVAKRLSAVVSYSGSSSTTVSYDVDLNNVLPEWVRVGLSATTGLYKETNTILSWSFTSKLKTNSIADANSLHFSFNQFSQNPKDLILQGDAFTDSDGNLQLTKVSSSGDPQGNSVGRALFYAPVHIWEKSAVVASFDATFTFLIKSPDREPADGITFFIANTDTSIPSGSGGRLLGLFPDAN | soluble
20 | ANGLITKIWGTAGWTFNHAVTFGYPLNPTSDDKRRYKNYFISLGDVLPCRLCRESYKKFITTGKTALTNEVLRNRHTLTKWFYDVHNAVNNKLEVDYGLSYEDVVNKYESFRAK | soluble
21 | AQELQTANEFTVHTDLSSISSTRAFLKEKHKAAKHIGVRADIPFDANQGIRLEAGFGRSKKNIINLETDENKLGKTKNVKLPTGVPENRIDLYTGYTYTQTLSDSLNFRVGAGLGFESSKDSIKTTKHTLHSSRQSWLAKVHADLLSQLGNGWYINPWSEVKFDLNSRYKLNTGVTNLKKDINQKTNGWGFGLGANIGKKLGESASIEAGPFYKQRTYKESGEFSVTTKSGDVSLTIPKTSIREYGLRVGIKF | soluble
22 | AQKPWEKDAWEIPRESLKLEKKLGAGQFGEVWMATYNKHTKVAVKTMKPGSMSVEAFLAEANVMKTLQHDKLVKLHAVVTKEPIYIITEFMAKGSLLDFLKSDEGSKQPLPKLIDFSAQIAEGMAFIEQRNYIHRDLRAANILVSASLVCKIADFGLARVIEDNEYTAREGAKFPIKWTAPEAINFGSFTIKSDVWSFGILLMEIVTYGRIPYPGMSNPEVIRALERGYRMPRPENCPEELYNIMMRCWKNRPEERPTFEYIQSVLDDFE | soluble
23 | AQRRAVAAAGGLARSCPAGQQALLAEGFARRLLRDVAATLHEGEYTSPLCEPLAYADPLAGLAAALAELMAWPGLLAVLQPVQAQPDAVAAAAGAGAPAAAGAGVGAGSGARQRLAQETADRARAEVLVLLQELVTWLDPCCDDSRGVAPQDAAAVSLAAFRSLVEHDPGAAAALDADTNIRWYLCNLTGDDAPPAAPPAECVAPQSDMLLDLARRLLAALPPLAAAAAPG | not soluble
24 | ASQIERNLARISAEKNRLDTILRGMGEGLMVSDAGGTVTLVNPAFLELFGLTQSVEGRQIIEIARFPELHETFRAVVSSRSEHVEEMTLPLGDEKQVLTHWVPLMEEDELRGVVAVFHDIS | not soluble
25 | ATALQCFCHLCTKDNFTCVTDGLCFVSVTETTDKVIHNSMCIAEIDLIPRDRPFVCAPSSKTGSVTTTYCCNQDHCNKIELPTTV | soluble
26 | ATCYCRTGRCATRESLSGVCEISGRLYRLCCR | soluble
27 | ATEAHPAGGRLVLRPVRKSDAGLFAMYAGDRRVAEGTRGIPHPLPPGAAEAFVNRSTAEARSEDVWVMDGSASGLSEVLGVISLKRMDRDQSEIAYWVAPAFWNAGFASEAVRALIEANPQGSRTIFAEVFQDNPQSARVLTNCGFEYIGDAEAFSVARNARVPTWTY | not soluble
